Legend:
[1] = target: T1, hemagglutinin (HA) of influenza A/Solomon Islands/3/06 H1N1 (Influenza A virus A/Solomon …); assay: cell-based or functional assay
[2] = target: T1, hemagglutinin (HA) of influenza …; assay: ELISA, inactivated whole virions coated; transfection supernatant set 3
[3] = target: T2, hemagglutinin (HA) of influenza A/Japan/305/57 H2N2 (Influenza A virus A/Japan/305/1957 …, UniProt P03451 16-562); assay: as above
[4] = target: T1, hemagglutinin (HA) of influenza …; assay: ELISA, inactivated whole virions coated; transfection supernatant set 2
[5] = target: T2, hemagglutinin (HA) of influenza …; assay: as above

Binder	% Neutralization [1]	OD450 [2]	OD450 [3]	OD450 [4]	OD450 [5]
TCN-532 (5262_H18) (antibody, V domains shown) VH: QVQLQESGPGLVKPSETLSLTCTVSGGSVSSETYYWSWIRQPPGKGLEWIGYIYYIGNTDYRPSLKSRVTISLDTSKNQFSLKLSSVTAADTAVYYCARGAYYDSSGYPAFYIWGQGTMVTVSS VL: QSVLTQPPSVSGAPGQRVTISCTGSSSNIGSDYDVHWYKQLPGTAPKLLIFGNSNRPSGVPDRFSGSKSGTSASLAITGLQAEDEADYYCQSYDSSLSGFHVFGSGTKVTVL	11%	0.13 OD450	0.08 OD450	–	–
TCN-531 (5091_H13) (antibody, V domains shown) VH: EVQLVESGGDLVQPGRSLKLSCTGSGFTFGDYGVTWVRQAPGKGLEWVGFIRTRPWGGTADTAASVKGRFTISRDDSKSLAYLQMNSLKTEDTAVYYCCRDAPPNVEVASMTNWYFDLWGRGTLVTVSS VL: DIQLTQSPSSLSASVGDRVTITCRASQGILNCLAWYQQKPGKVPNLLMYAASTLQSGVPSRFSGSGFGTDFTLTISSLQPEDVATYYCQTYGGVSTFGGGTKVEIR	65%	0.1 OD450	0.09 OD450	–	–
TCN-526 (5084_C17) (antibody, V domains shown) VH: EVLMVESGGGLVQPGGSVRLSCVASGFSFSSHWMTWVRQAPGKGLEWVANIEDDGGDKYYVDSVKGRFIISRDNAKNSVYLQMNSLRAEDTAVYFCARGSGSSDRSDYDPHYYYYLDVWGKGATVTVSS VL: DIQLTQSPSSLSASVGDRVTITCRASQSISRYLNWYQQKPGKAPKLLLFAASTLLDGVPSRFSGSGSGTDFTLTISSLQPEDFATYYCQRNHSPSWTFGQGTRVEIK	0%	–	–	0.08 OD450	0.07 OD450
TCN-563 (5237_B21) (antibody, V domains shown) VH: QVQLAQSGAEVKRPGSSVKVSCTASGGIFRKNAISWVRQAPGQGLEWMGGIIAVFNTANYAQKFQGRVKITADESGNTAYMELSSLRSDDTAVYYCASHPKYFYGSGSYPDFWGQGTLVTVSS VL: QSALTQPRSVSGSPGQSVTISCTGSSSDVGASNSVSWYQQHPGKAPKLVIYDVTERPSGVPHRFSGSKSGNTASLTVSGLQPEDEADYFCCAYGGKYLVVFGGGTKVTVL	78%	–	–	3.6 OD450	0.84 OD450
TCN-529 (5297_H01) (antibody, V domains shown) VH: QITLRESGPTLVKPTQTLTLTCTFSGFSLSTNGVNVGWIRQPPGKALEWLALIYWDDDKRYSPSLKRRLTITKDTSKNQVVLTLTNMDPVDTATYYCAHRPDFYGDFEYWGPGTLVTVSS VL: QSALTQPASVSGSPGQSITISCTGSSSDIGGYNYVSWYQQHPGKAPKLMIYDVNNRPSGVSNRFSGSKSGNTASLTISGLQTDDEADYYCGSYTGSPHYVFGTGTKVTVL	0%	0.16 OD450	0.1 OD450	–	–
TCN-530 (5248_H10a) (antibody, V domains shown) VH: QVQLVQSGAEVRKPGSSVKVSCKASGGPFMSYAIGWVRQAPGQGLEWMGGINPVFGRPHYAQKFQGRVTIATDDSTKTSYMELSSLTSEDTGMYYCASRYSRSSPGTFESWGQGTLVTVSS VL: EIVMTQFPATLSVSPGERVTLSCRASQSVSNNLAWYQQKPGQPPRLLIYDASTRATGVPAKFSGTGSGTEFTLSISSLQSEDFAVYYCQQYHNWPPSYSFGLGTKLEIK	64%	3.62 OD450	3.43 OD450	–	–
TCN-533 (5256_A17) (antibody, V domains shown) VH: QVQLVQSGADVKKPGSSVTVSCKASGGSFSNYGINWVRQAPGQGLEWMGGIIPLINAPNYAPKFQGRVTITADMFSNIVSLQLTSLRTDDTAVYYCARRKMTTAIDYWGQGTLVTVSS VL: QPVLSQPPSASASLGASVTLTCTLSSGFDNYQVAWYQQRPGKGPRFVMRVGNGGNVASKGDGIPDRFSVSGSGLNRYLTIKNIQEDDESDYYCGADHGSGNNFVSPYVFGGGTKLTVL	56%	3.61 OD450	3.65 OD450	–	–

Reference: patent publication US20120207760A1 (THERACLONE SCIENCES, published 2012)
